Data published in the supplement of paper PMC10567573.

B1: ACSBG2 (parent)
chain: TPMTIPEFFRESVNRFGTYPALAS

Variants of: B1
Assay: protein stability index of a GFP-peptide fusion (GPS, HEK-293T) (PSI 1-6); higher = more stable
Details: c terminus: a fixed tail appended
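Also: lentivirally expressed fusions sorted by FACS into six bins by GFP to DsRed ratio, PSI derived from sequencing read proportions per bin multiplied by bin number.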

Going from TPMTIPEFFRESVNRTGTYPALAS [F16T] to TPMTIPEFFRESVNRFGTYPALPS [A23P], the protein stability index falls from 2.87 to 2.2.

Going from TPMTIPEFFRESVNRFGTYPALIS [A23I] to TPMTIPEFFRESVNRFGTYPALLS [A23L], the protein stability index falls from 2.37 to 2.19.

First: TPMTIPEFFRESVNRFGTYPALMS [A23M]
Second: TPMTIPEFFRESVNRFGTYPALYS [A23Y]
The protein stability index of the first is higher: 1.97 for the first, 1.82 for the second.

Going from TPMTIPYFFRESVNRFGTYPALAS [E7Y] to TPMTIPDFFRESVNRFGTYPALAS [E7D], the protein stability index rises from 1.52 to 2.13.

TPMTIPCFFRESVNRFGTYPALAS [E7C] and TPMTIPRFFRESVNRFGTYPALAS [E7R] are the same in protein stability index: 2.19 for the first, 2.19 for the second.

Going from TPMTIPNFFRESVNRFGTYPALAS [E7N] to TPMTIPTFFRESVNRFGTYPALAS [E7T], the protein stability index falls from 2.63 to 2.19.

First: TPMTIPIFFRESVNRFGTYPALAS [E7I]
Second: TPMTIPAFFRESVNRFGTYPALAS [E7A]
The protein stability index of the first is higher: 2.65 for the first, 2.26 for the second.

Going from TPMTIPEFFRESVNRFGTIPALAS [Y19I] to TPMTIPEFFRESVNRFGTPPALAS [Y19P], the protein stability index rises from 2.78 to 2.87.

First: TPMTIPEFFRESVNRFGTEPALAS [Y19E]
Second: TPMTIAEFFRESVNRFGTYPALAS [P6A]
The protein stability index of the first is higher: 3.37 for the first, 1.8 for the second.

First: TPMTIREFFRESVNRFGTYPALAS [P6R]
Second: TPMTIWEFFRESVNRFGTYPALAS [P6W]
The protein stability index of the first is lower: 2.08 for the first, 2.67 for the second.

First: TPMTIQEFFRESVNRFGTYPALAS [P6Q]
Second: TPMTIHEFFRESVNRFGTYPALAS [P6H]
The protein stability index of the first is lower: 1.93 for the first, 2.38 for the second.

First: TPMTIPEMFRESVNRFGTYPALAS [F8M]
Second: TPMTIPEKFRESVNRFGTYPALAS [F8K]
The protein stability index of the first is lower: 2.35 for the first, 3.02 for the second.

Going from TPMTIPELFRESVNRFGTYPALAS [F8L] to TPMTIPEIFRESVNRFGTYPALAS [F8I], the protein stability index falls from 2.66 to 2.42.

Going from TPMTIPEGFRESVNRFGTYPALAS [F8G] to TPMTIPEEFRESVNRFGTYPALAS [F8E], the protein stability index falls from 3.02 to 2.35.

Compared with TTMTIPEFFRESVNRFGTYPALAS [P2T], THMTIPEFFRESVNRFGTYPALAS [P2H] is lower in protein stability index: 2.35 for the first, 2.29 for the second.

First: TEMTIPEFFRESVNRFGTYPALAS [P2E]
Second: TAMTIPEFFRESVNRFGTYPALAS [P2A]
The protein stability index of the first is higher: 2.89 for the first, 2 for the second.

Going from TCMTIPEFFRESVNRFGTYPALAS [P2C] to TLMTIPEFFRESVNRFGTYPALAS [P2L], the protein stability index rises from 1.72 to 1.93.

Compared with TKMTIPEFFRESVNRFGTYPALAS [P2K], TPMTIPEFFRESVLRFGTYPALAS [N14L] is lower in protein stability index: 2.01 for the first, 1.62 for the second.

Compared with TPMTIPEFFRESVMRFGTYPALAS [N14M], TPMTIPEFFRESVERFGTYPALAS [N14E] is higher in protein stability index: 2.39 for the first, 2.81 for the second.

Going from TPMTIPEFFRESVYRFGTYPALAS [N14Y] to TPMTIPEFFRESVCRFGTYPALAS [N14C], the protein stability index falls from 1.88 to 1.83.

Compared with TPMTIPEFFRESVQRFGTYPALAS [N14Q], TPMTIPEFFRESVTRFGTYPALAS [N14T] is lower in protein stability index: 2.24 for the first, 2.23 for the second.

Going from TPMTIPEFFRESVNMFGTYPALAS [R15M] to TPMTIPEFFRESVNEFGTYPALAS [R15E], the protein stability index rises from 1.8 to 2.62.

Going from TPMTIPEFFRESVNGFGTYPALAS [R15G] to TPMTIPEFFRESVNFFGTYPALAS [R15F], the protein stability index rises from 1.97 to 2.25.

Going from TPMTIPEFFRESVNIFGTYPALAS [R15I] to TPMAIPEFFRESVNRFGTYPALAS [T4A], the protein stability index rises from 2.24 to 2.62.

Going from TPMMIPEFFRESVNRFGTYPALAS [T4M] to TPMVIPEFFRESVNRFGTYPALAS [T4V], the protein stability index rises from 2.17 to 3.26.

Compared with TPMWIPEFFRESVNRFGTYPALAS [T4W], TPMDIPEFFRESVNRFGTYPALAS [T4D] is higher in protein stability index: 2.19 for the first, 2.23 for the second.

Compared with TPMRIPEFFRESVNRFGTYPALAS [T4R], TPMTIPEFFRESVNRFGTYPAPAS [L22P] is higher in protein stability index: 2.32 for the first, 2.63 for the second.

Going from TPMTIPEFFRESVNRFGTYPAIAS [L22I] to TPNTIPEFFRESVNRFGTYPALAS [M3N], the protein stability index rises from 2.34 to 2.62.

First: TPLTIPEFFRESVNRFGTYPALAS [M3L]
Second: TPQTIPEFFRESVNRFGTYPALAS [M3Q]
The protein stability index of the first is lower: 2.09 for the first, 3.21 for the second.

First: TPFTIPEFFRESVNRFGTYPALAS [M3F]
Second: TPGTIPEFFRESVNRFGTYPALAS [M3G]
The protein stability index of the first is lower: 2.14 for the first, 2.54 for the second.

For TPMTIPEFFRESRNRFGTYPALAS [V13R], the protein stability index was 2.37.
